In assay [1] the target is ARG1 (UniProt P05089). The assay is described as follows: co-IP, IgG control, C-FLAG B3GNT2 cell lysate, mass spectrometry.
In assay [2] the target is CDSN (UniProt Q15517). The description is as above.
The target of assay [3] is DDX20 (UniProt Q9UHI6). The description is as above.
In assay [4] the target is DNAJA2 (UniProt O60884). Described as above.
Assay [5] deals with HIST1H1E (UniProt P10412). The description is as above.
Assay [6] has as its target HSPB1 (UniProt P04792). The description is as above.
In assay [7] the target is ITGB3 (UniProt P05106). Described as above.
Assay [8] has as its target LIMA1 (UniProt Q9UHB6). Described as above.
In assay [9] the target is MTDH (UniProt Q86UE4). The assay is described as above.
The target in assay [10] is POF1B (UniProt Q8WVV4). The assay is described as above.
The target of assay [11] is PSMA7 (UniProt O14818). Described as above.
Chain of PSMA7 (O14818 whole entry): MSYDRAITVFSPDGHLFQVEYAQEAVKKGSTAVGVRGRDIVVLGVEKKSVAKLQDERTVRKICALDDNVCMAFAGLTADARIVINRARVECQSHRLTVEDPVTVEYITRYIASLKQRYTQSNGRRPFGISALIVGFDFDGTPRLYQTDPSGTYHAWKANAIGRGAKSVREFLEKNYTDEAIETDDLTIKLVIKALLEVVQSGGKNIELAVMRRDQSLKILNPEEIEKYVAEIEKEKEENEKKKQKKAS
The target of assay [12] is RPL19 (UniProt P84098). Described as above.
Assay [13] has as its target RPL22 (UniProt P35268). The description is as above.
Assay [14] addresses RPL27A (UniProt P46776). The assay is described as above.
The target in assay [15] is RPL35 (UniProt P42766). The description is as above.
Assay [16] addresses RPL37A (UniProt P61513). The description is as above.
For assay [17], the target named is RPS13 (UniProt P62277). Described as above.
Assay [18] has as its target RPS16 (UniProt P62249). The description is as above.
For assay [19], the target named is RPS18 (UniProt P62269). The assay is described as above.
Assay [20] concerns the target RPS19 (UniProt P39019). Described as above.
In assay [21] the target is RPS2 (UniProt P15880). Described as above.
In assay [22] the target is SRSF1 (UniProt Q07955). The assay is described as above.
Chain of SRSF1 (Q07955 2-248 limits assumed): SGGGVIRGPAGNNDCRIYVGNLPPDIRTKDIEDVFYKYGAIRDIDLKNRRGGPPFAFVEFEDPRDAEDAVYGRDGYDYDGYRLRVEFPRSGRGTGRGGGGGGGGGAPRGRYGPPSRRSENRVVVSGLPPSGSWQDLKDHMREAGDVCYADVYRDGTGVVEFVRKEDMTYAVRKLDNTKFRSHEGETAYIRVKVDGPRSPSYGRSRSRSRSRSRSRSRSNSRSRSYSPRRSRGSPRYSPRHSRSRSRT
For assay [23], the target named is SRSF3 (UniProt P84103). The description is as above.
Chain of SRSF3 (P84103 whole entry): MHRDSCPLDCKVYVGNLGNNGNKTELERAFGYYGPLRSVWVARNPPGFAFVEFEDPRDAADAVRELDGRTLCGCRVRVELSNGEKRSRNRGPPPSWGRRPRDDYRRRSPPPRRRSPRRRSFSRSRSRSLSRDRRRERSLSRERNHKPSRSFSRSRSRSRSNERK
Assay [24] concerns the target SSRP1 (UniProt Q08945). The assay is described as above.
Assay [25] concerns the target TAGLN (UniProt Q01995). The assay is described as above.
In assay [26] the target is TNKS1BP1 (UniProt Q9C0C2). The description is as above.
Chain of TNKS1BP1 (Q9C0C2 whole entry): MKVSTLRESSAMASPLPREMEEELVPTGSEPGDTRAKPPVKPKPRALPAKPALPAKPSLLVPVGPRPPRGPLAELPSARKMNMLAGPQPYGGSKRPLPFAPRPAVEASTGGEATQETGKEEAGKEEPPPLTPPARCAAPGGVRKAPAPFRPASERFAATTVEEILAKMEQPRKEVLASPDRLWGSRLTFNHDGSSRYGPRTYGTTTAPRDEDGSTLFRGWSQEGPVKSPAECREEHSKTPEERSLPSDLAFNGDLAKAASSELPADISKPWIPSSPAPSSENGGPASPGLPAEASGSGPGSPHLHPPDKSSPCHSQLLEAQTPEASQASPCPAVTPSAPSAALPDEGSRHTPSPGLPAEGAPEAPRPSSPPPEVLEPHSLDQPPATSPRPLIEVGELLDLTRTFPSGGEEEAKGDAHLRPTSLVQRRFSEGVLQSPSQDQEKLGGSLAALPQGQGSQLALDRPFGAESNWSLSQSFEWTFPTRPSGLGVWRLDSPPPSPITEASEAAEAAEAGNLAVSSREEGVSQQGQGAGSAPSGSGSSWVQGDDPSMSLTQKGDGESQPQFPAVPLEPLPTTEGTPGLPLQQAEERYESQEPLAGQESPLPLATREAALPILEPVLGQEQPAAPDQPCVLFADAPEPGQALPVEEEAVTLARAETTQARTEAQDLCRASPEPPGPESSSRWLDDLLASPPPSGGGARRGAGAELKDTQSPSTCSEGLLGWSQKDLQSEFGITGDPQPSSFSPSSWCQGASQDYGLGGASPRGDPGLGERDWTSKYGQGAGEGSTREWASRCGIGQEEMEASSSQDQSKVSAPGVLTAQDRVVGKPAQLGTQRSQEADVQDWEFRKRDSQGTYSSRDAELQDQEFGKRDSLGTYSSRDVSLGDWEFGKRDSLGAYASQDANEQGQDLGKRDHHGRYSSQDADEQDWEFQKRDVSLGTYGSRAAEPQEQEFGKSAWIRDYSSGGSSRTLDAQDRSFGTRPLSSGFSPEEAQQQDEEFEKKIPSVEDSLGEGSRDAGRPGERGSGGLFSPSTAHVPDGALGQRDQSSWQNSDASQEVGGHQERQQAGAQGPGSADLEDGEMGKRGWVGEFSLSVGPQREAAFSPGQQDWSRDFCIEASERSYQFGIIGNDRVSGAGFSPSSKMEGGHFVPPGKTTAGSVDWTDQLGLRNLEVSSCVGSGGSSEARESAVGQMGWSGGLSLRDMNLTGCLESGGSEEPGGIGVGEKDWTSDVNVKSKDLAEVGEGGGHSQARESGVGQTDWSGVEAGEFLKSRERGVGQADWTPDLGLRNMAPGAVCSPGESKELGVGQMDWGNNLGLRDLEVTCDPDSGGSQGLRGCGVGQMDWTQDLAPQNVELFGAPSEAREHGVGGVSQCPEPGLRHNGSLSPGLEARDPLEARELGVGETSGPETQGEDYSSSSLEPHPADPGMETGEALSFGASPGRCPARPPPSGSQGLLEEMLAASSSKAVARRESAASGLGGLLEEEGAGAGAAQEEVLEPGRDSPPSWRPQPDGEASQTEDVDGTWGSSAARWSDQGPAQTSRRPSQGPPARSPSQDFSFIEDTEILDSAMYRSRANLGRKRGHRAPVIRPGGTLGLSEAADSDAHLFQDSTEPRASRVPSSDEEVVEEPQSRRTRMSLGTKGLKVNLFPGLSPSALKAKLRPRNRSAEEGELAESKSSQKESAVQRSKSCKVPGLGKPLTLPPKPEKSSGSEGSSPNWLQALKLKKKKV
In assay [27] the target is COPA (human) (UniProt P53621). The assay is described as follows: co-IP with anti-FLAG, N-FLAG B3GNT2, mass spectrometry.
Assay [28] concerns the target DDX1 (human) (UniProt Q92499). Described as above.
Assay [29] has as its target EMILIN1 (human) (UniProt Q9Y6C2). The description is as above.
Assay [30] has as its target GSN (human) (UniProt P06396). Described as above.
For assay [31], the target named is HNRNPH1 (human) (UniProt P31943). Described as above.
Assay [32] has as its target IL13RA2 (human) (UniProt Q14627). The assay is described as above.
The target of assay [33] is LCN1 (human) (UniProt P31025). Described as above.
Assay [34] has as its target MAP4 (human) (UniProt P27816). The description is as above.
For assay [35], the target named is MMS19 (human) (UniProt Q96T76). Described as above.
In assay [36] the target is PSMA3 (human) (UniProt P25788). The assay is described as above.
Chain of PSMA3 (human) (P25788 2-255 limits assumed): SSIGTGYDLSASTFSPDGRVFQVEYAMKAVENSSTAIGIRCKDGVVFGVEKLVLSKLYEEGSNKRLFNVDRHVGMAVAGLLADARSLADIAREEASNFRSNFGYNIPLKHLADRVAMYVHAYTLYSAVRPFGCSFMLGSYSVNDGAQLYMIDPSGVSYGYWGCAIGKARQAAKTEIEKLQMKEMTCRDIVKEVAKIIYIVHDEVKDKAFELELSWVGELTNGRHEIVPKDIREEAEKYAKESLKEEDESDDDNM
For assay [37], the target named is RPL28 (human) (UniProt P46779). The description is as above.
The target in assay [38] is RPL8 (human) (UniProt P62917). The description is as above.
Assay [39] concerns the target RPS27A (human) (UniProt P62979). The assay is described as above.
Assay [40] has as its target SYNPO (human) (UniProt Q8N3V7). Described as above.

Chain of IL13RA2 (human) (Q14627 27-380 limits assumed): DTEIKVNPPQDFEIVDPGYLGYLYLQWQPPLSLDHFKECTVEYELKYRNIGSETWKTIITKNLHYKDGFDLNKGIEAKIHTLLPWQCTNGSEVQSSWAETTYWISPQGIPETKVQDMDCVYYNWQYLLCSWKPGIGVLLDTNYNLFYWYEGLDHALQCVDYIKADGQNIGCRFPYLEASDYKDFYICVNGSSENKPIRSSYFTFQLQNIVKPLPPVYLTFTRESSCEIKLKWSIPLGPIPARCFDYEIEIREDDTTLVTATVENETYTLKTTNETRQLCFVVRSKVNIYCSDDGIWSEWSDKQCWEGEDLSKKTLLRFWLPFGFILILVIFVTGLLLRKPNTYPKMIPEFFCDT
Chain of DNAJA2 (O60884 1-409 limits assumed): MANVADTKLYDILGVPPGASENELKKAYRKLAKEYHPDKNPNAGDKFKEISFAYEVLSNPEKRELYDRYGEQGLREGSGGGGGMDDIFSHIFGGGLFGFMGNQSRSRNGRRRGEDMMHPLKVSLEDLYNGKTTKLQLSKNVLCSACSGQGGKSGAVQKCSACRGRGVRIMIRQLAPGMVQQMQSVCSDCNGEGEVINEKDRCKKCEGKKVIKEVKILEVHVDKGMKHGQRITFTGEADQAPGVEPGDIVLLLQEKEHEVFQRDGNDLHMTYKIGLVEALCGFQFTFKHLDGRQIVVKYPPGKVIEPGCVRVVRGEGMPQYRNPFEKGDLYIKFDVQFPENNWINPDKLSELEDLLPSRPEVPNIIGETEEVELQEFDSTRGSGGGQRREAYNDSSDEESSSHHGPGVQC
Chain of TAGLN (Q01995 2-201 limits assumed): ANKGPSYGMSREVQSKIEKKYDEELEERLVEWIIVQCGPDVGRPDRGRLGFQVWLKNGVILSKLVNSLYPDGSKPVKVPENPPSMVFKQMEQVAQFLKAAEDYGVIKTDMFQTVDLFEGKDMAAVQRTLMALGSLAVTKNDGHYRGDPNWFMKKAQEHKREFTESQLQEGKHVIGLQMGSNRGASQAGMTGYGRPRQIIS
Chain of ARG1 (P05089 whole entry): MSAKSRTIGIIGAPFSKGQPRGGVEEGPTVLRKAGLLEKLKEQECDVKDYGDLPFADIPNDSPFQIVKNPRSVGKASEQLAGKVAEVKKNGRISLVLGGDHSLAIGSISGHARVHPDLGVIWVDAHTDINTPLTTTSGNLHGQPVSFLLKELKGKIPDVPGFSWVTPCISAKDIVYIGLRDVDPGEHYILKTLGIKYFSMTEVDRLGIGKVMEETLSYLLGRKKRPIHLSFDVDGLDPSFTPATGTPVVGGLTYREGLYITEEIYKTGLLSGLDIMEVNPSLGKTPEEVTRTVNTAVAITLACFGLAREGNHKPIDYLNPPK
Chain of DDX1 (human) (Q92499 whole entry): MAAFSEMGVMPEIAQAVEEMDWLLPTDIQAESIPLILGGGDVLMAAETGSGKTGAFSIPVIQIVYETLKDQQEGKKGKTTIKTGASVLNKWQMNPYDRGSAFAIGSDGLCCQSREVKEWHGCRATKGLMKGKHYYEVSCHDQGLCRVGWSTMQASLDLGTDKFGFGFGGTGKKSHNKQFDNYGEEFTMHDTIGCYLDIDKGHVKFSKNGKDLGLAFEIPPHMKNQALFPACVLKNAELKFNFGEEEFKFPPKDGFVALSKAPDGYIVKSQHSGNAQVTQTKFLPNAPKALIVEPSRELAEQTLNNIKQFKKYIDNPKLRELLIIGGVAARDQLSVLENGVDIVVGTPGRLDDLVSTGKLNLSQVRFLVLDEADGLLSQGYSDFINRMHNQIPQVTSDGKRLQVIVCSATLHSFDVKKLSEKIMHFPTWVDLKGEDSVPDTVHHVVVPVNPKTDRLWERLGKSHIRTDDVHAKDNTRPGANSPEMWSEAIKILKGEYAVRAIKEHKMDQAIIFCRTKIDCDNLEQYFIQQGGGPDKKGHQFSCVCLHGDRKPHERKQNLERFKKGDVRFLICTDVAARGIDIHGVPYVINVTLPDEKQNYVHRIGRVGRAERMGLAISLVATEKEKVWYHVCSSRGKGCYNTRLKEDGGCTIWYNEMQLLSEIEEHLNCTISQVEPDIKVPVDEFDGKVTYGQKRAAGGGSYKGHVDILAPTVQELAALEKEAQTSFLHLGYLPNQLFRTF
Chain of HIST1H1E (P10412 2-219 limits assumed): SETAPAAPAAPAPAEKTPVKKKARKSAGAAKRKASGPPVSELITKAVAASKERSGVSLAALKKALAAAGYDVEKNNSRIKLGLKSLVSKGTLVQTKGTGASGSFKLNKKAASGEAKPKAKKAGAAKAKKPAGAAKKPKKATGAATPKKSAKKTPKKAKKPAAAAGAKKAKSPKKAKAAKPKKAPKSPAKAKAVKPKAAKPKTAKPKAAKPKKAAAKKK

For “IgG control (Millipore Sigma 12-371) (antibody)”, the co-IP mass spectrometry count in assay [1] is 4; in [2], 0; in assay [3], 0; in assay [4] it was 0; in assay [5] it was 0; in assay [6], 0. Moreover, the co-IP mass spectrometry count is 0 in [7]; 0 in [8]; 0 in assay [9]; 0 in assay [10]; 0 in [11]; 2 in assay [12]. Moreover, the co-IP mass spectrometry count in assay [13] was determined as 0; in assay [14], 0; in assay [15], 0; in assay [16], 3; in [17] it was 2; in [18] it was 8. Also, the co-IP mass spectrometry count came out at 9 in assay [19]; 3 in [20]; 12 in assay [21]; 3 in assay [22]; 3 in assay [23]; 0 in [24]. In addition, the figures for the co-IP mass spectrometry count in assay [25] and in [26] were 0 and 2, respectively.

Turning to “N-terminal FLAG tagged B3GNT2 (from UniProt Q9NY97 1-397) (enzyme)”, the co-IP/MS count, N-term FLAG came to 2 in assay [27], 11 in assay [31], 4 in assay [35] and 4 in assay [36]. Also, the co-IP mass spectrometry count in assay [28] turned out to be 7; in assay [29] it was 2; in assay [30], 2; in [32], 3; in assay [33] it was 11; in [34], 0. Also, the co-IP mass spectrometry count in [37] came out at 8; in assay [38] it was 10; in assay [39], 8; in assay [40], 4.

The record behind these values is US20240261333A1, “NOVEL TARGETS FOR ENHANCING ANTI-TUMOR IMMUNITY” (THE BROAD INSTITUTE, INC., priority 2021, published 2024).
